Experiments:
[1] = -80° C.; cited from earlier work
[2] = Irritation at the site of injection and clinical safety in healthy volunteers (Example 8); assay type: in vivo, human (healthy male volunteers); conditions: s.c.
Protocol: Bioavailability of erythropoietin after subcutaneous administration of erythropoietin in a hydroxypropyl-β-cyclodextrin formulation in comparison with formulations using human serum albumin in healthy volunteers was assessed in the following study.
Six healthy male volunteers with ages ranging between 30 and 40 (median 32) years, body weights between 69 and 80 (median 75) kg were administered subcutaneously in the upper arm 1 ml of an EPO solution (4000 I.U./ml) according to a randomized cross-over design. A four-week interval occured between the two tests. The two formulations of EPO were
Irritation at the site of injection was scored before and 2, 4, and 24 hours after each administration. No oedema, erythema, itching or pain was reported in any of the volunteers at any time during the whole study. Both formulations are therefore equally well tolerated.

Substance: EPO: circulating glycoprotein hormone which induces an increase in red cell mass
- decrease in activity in aqueous solution [1]: substantial decrease in activity
- blood pressure or heart rate [2]: Nor did subcutaneous administration of EPO influence blood pressure or heart rate
- haematology and serum biochemistry [2]: No clinically important changes
